Reference: paper PMC11347149

Columns and labels:
[1] = target: T1, His6C-CoxC (LytTR DNA-binding domain) (Afipia carboxidovorans OM5) (UniProt Q9KX27); assay: EMSA; settings: EMSA: 20 mM Tris-HCl pH 7.5, 50 mM KCl, 2 mM beta-mercaptoethanol, 10% glycerol, 250 ug/ml BSA, 50 ug/ml salmon sperm DNA, 1 mM DTT, 1 mM dithionite, 2 ng …
T1 sequence: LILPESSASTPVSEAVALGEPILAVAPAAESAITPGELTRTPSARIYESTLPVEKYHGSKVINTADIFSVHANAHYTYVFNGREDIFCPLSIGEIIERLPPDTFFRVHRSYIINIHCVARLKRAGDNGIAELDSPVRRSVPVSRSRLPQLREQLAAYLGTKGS

[2] = system: His6C-CoxC (LytTR DNA-binding domain) (Afipia carboxidovorans OM5); assay: EMSA; settings: EMSA: 20 mM Tris-HCl pH 7.5, 50 mM KCl, 2 mM beta-mercaptoethanol, 10% glycerol, 250 ug/ml BSA, 50 ug/ml salmon sperm DNA, 1 mM DTT, 1 mM dithionite, 2 ng …

Substance | Kd [1] [µM] | binding [1] | Kd [2] [µM]
AATTCCAGTTCATGCGTATGTTACCGCCGTTGGTGGAATTTGGAAGTCGTTTGGGCAAAAGCCTTTGATGCTGCTTTGCGGCAACTTCTATCGTGCCCCACGAACGTCGCATCATAAGAAATGTGACGCCCGGGGGGGACAACGCAAATGGGTTGCGAAAATATGCAGGCGCGGCAAGCACCGTGTCGCCAAGCTAGGCATTTGGCTCAAACTGTCCCCTCGAAGCTCTCTTCAACTGCTGCAAAGCATCGACCGCATTTTCGCGGACGATATTGGGATCCCG (double strand) [PcoxB] | 0.025 | binds | –
PcoxB | – | – | 0.025
